Test results as given in PMC12588282 (Science Advances, 2025).
“And” between values parts separate entries of the source, which are not always exact repeats. Equal values may be shown once.

Columns and labels:
[1] = biological target: Human Fcμ variant with the tailpiece truncated to 14 residues (human); test: native gel or EMSA
[2] = biological target: Human Fcμ variant with the tailpiece truncated to 14 residues (human); test: 2D cryo-EM classification
[3] = biological target: Human Fcμ variant with the tailpiece truncated to 15 residues (human); test: native gel or EMSA
[4] = biological target: Human Fcμ variant with the tailpiece truncated to 15 residues (human); test: 2D cryo-EM classification
[5] = biological target: Fc region of the Xenopus laevis IgX heavy chain (Cχ2, Cχ3, Cχ4 and χtp) (Xenopus laevis); test: 2D cryo-EM classification
[6] = biological target: Fragment of Fcχ consisting of Cχ3, Cχ4 and χtp (Xenopus laevis); test: 2D cryo-EM classification
[7] = biological target: Fragment of Fcχ consisting of Cχ3, Cχ4 and χtp (Xenopus laevis); test: cryo-EM structure
[8] = biological target: Human Fcμ variant with the tailpiece truncated to 17 residues (human); test: 2D cryo-EM classification
[9] = biological target: Human Fcμ variant with the tailpiece truncated to 16 residues (human); test: native gel or EMSA
[10] = biological target: Human Fcμ variant with the tailpiece truncated to 16 residues (human); test: 2D cryo-EM classification
[11] = biological target: Human Fcμ variant with the tailpiece truncated to 13 residues (human); test: native gel or EMSA
[12] = biological target: Human Fcμ variant with the tailpiece truncated to 13 residues (human); test: 2D cryo-EM classification
[13] = biological target: Recombinant human Fcμ with an intact 18-amino acid tailpiece (human); test: 2D cryo-EM classification
[14] = biological target: Recombinant human Fcμ with an intact 18-amino acid tailpiece (human); test: AUC
AUC = biological target: the molecule itself; test: AUC
[15] = biological target: the molecule itself; test: 2D cryo-EM classification

Q: With “Human Fcμ variant with the tailpiece truncated to 14 residues (domain or fragment)” as the molecule, how does the stoichiometry N [1] read?
A: 6

Q: What about the stoichiometry N [2] of the same molecule?
A: 6

Q: “Human Fcμ variant with the tailpiece truncated to 15 residues (domain or fragment)” was tested. Which stoichiometry N [3] did it give?
A: 6

Q: And the stoichiometry N [4]?
A: 6

Q: Which stoichiometry N [5] does the source give for “Fc region of the Xenopus laevis IgX heavy chain (Cχ2, Cχ3, Cχ4 and χtp) (domain or fragment)” here?
A: 6

Q: Which results are given for “Fragment of Fcχ consisting of Cχ3, Cχ4 and χtp (domain or fragment)”?
A: stoichiometry N [6]: 6; stoichiometry N [7]: 6

Q: For “Human Fcμ variant with the tailpiece truncated to 17 residues (domain or fragment)”, which stoichiometry N [8] is on record?
A: 6 and 5

Q: For “Human Fcμ variant with the tailpiece truncated to 16 residues (domain or fragment)”, which stoichiometry N [9] is on record?
A: 6

Q: And the stoichiometry N [10]?
A: 6

Q: “Human Fcμ variant with the tailpiece truncated to 13 residues (domain or fragment)” was tested. Which stoichiometry N [11] did it give?
A: 6

Q: And the stoichiometry N [12]?
A: 6

Q: With “Recombinant human Fcμ with an intact 18-amino acid tailpiece (domain or fragment)” as the molecule, how does the stoichiometry N [13] read?
A: 6 and 4 and 5

Q: What about the stoichiometry N [14] of the same molecule?
A: 4 and 5 and 6

B1: Human Fcμ variant with the tailpiece truncated to 11 residues (domain or fragment)
chain: IAELPPKVSVFVPPRDGFFGNPRKSKLICQATGFSPRQIQVSWLREGKQVGSGVTTDQVQAEAKESGPTTYKVTSTLTIKESDWLGQSMFTCRVDHRGLTFQQNASSMCVPDQDTAIRVFAIPPSFASIFLTKSTKLTCLVTDLTTYDSVTISWTRQNGEAVKTHTNISESHPNATFSAVGEASICEDDWNSGERFTCTVTHTDLPSPLKQTISRPKGVALHRPDVYLLPPAREQLNLRESATITCLVTGFSPADVFVQWMQRGQPLSPEKYVTSAPMPEPQAPGRYFAHSILTVSEEEWNTGETYTCVVAHEALPNRVTERTVDKSTGKPTLYNVSLVMS
modifications: glycosylation at Asn563
Q: Which “stoichiometry N” value (AUC) does the source give for B1 here?
A: 6

B2: Human Fcμ variant with the tailpiece truncated to 12 residues (domain or fragment)
chain: IAELPPKVSVFVPPRDGFFGNPRKSKLICQATGFSPRQIQVSWLREGKQVGSGVTTDQVQAEAKESGPTTYKVTSTLTIKESDWLGQSMFTCRVDHRGLTFQQNASSMCVPDQDTAIRVFAIPPSFASIFLTKSTKLTCLVTDLTTYDSVTISWTRQNGEAVKTHTNISESHPNATFSAVGEASICEDDWNSGERFTCTVTHTDLPSPLKQTISRPKGVALHRPDVYLLPPAREQLNLRESATITCLVTGFSPADVFVQWMQRGQPLSPEKYVTSAPMPEPQAPGRYFAHSILTVSEEEWNTGETYTCVVAHEALPNRVTERTVDKSTGKPTLYNVSLVMSD
Q: With B2 as the molecule, how does the “stoichiometry N” value [15] read?
A: 6

B3: Human Fcμ variant with the tailpiece truncated to 10 residues (domain or fragment)
chain: IAELPPKVSVFVPPRDGFFGNPRKSKLICQATGFSPRQIQVSWLREGKQVGSGVTTDQVQAEAKESGPTTYKVTSTLTIKESDWLGQSMFTCRVDHRGLTFQQNASSMCVPDQDTAIRVFAIPPSFASIFLTKSTKLTCLVTDLTTYDSVTISWTRQNGEAVKTHTNISESHPNATFSAVGEASICEDDWNSGERFTCTVTHTDLPSPLKQTISRPKGVALHRPDVYLLPPAREQLNLRESATITCLVTGFSPADVFVQWMQRGQPLSPEKYVTSAPMPEPQAPGRYFAHSILTVSEEEWNTGETYTCVVAHEALPNRVTERTVDKSTGKPTLYNVSLVM
Q: Which “stoichiometry N” value [15] does the source give for B3 here?
A: 6 and 4
